Numbering of substitutions follows the chain as printed. Names may count otherwise.
T1: CYP75B4-JJJ (Oryza sativa, UniProt Q8LM92, E7V)
T1 construct: full length, 535 residues, natural allele with Val7, C-terminal V5 and 6xHis tags, yeast WAT11 cells with Arabidopsis reductase ATR1
T1 sequence (Q8LM92 1-535 E7V): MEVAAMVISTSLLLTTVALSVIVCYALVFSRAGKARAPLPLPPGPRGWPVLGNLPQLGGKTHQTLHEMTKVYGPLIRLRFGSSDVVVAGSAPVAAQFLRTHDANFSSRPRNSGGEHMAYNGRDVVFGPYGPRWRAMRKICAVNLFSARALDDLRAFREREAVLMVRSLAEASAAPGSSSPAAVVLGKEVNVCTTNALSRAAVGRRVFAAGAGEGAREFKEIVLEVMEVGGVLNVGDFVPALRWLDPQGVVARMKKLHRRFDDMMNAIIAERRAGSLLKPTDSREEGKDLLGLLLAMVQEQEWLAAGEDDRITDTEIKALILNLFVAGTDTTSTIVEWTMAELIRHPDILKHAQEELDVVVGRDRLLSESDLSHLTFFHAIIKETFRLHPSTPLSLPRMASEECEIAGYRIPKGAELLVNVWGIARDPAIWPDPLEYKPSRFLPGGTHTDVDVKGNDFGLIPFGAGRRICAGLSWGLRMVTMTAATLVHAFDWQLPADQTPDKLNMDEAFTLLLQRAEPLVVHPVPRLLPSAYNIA

T2: CYP75B4-HN (Oryza sativa, UniProt Q8LM92, H351Q)
T2 construct: full length, 535 residues, natural allele with Gln351, C-terminal V5 and 6xHis tags, yeast WAT11 cells with Arabidopsis reductase ATR1
T2 sequence (Q8LM92 1-535 H351Q): T1 sequence (Q8LM92 1-535 E7V) with V7E, H351Q

B1: CYP75B4-IM (Oryza sativa Japonica Group) (protein)
chain: T1 sequence (Q8LM92 1-535 E7V) with V7E
notes: full length, 535 residues, C-terminal V5 and 6xHis tags (pYES-DEST52), yeast WAT11 microsomes with Arabidopsis reductase ATR1
B2: CYP75B3-IM (CYP75B3-JJJ) (Oryza sativa Japonica Group) (protein)
chain: MDVVPLPLLLGSLAVSAAVWYLVYFLRGGSGGDAARKRRPLPPGPRGWPVLGNLPQLGDKPHHTMCALARQYGPLFRLRFGCAEVVVAASAPVAAQFLRGHDANFSNRPPNSGAEHVAYNYQDLVFAPYGARWRALRKLCALHLFSAKALDDLRAVREGEVALMVRNLARQQAASVALGQEANVCATNTLARATIGHRVFAVDGGEGAREFKEMVVELMQLAGVFNVGDFVPALRWLDPQGVVAKMKRLHRRYDNMMNGFINERKAGAQPDGVAAGEHGNDLLSVLLARMQEEQKLDGDGEKITETDIKALLLNLFTAGTDTTSSTVEWALAELIRHPDVLKEAQHELDTVVGRGRLVSESDLPRLPYLTAVIKETFRLHPSTPLSLPREAAEECEVDGYRIPKGATLLVNVWAIARDPTQWPDPLQYQPSRFLPGRMHADVDVKGADFGLIPFGAGRRICAGLSWGLRMVTLMTATLVHGFDWTLANGATPDKLNMEEAYGLTLQRAVPLMVQPVPRLLPSAYGV
notes: full length, 526 residues, C-terminal V5 and 6xHis tags (pYES-DEST52), yeast WAT11 microsomes with Arabidopsis reductase ATR1
B3: CYP75B3-HN (Oryza sativa Japonica Group; R27H) (protein)
chain: B2 chain with R27H
notes: full length, 526 residues, natural allele with His27, C-terminal V5 and 6xHis tags, yeast WAT11 microsomes with Arabidopsis reductase ATR1

Tests used:
CYP75B4-JJJ = biological target: T1, CYP75B4-JJJ; test: substrate feeding of induced yeast, HPLC of […]'-hydroxylated product; assay type: cell-based; details: 50 μM substrate, whole yeast WAT11 culture, 28 °C, 7.5 h
CYP75B4-HN = biological target: T2, CYP75B4-HN; test: as above; assay type: cell-based; details: 50 μM substrate, whole yeast WAT11 culture, 28 °C, 7.5 h
[1] = substrate: O=c1cc(-c2ccc(O)cc2)oc2cc(O)cc(O)c12; test: cells, lysate or membranes; details: 1 mM NADPH, 100 mM Tris pH 7.5, 30 °C
[2] = substrate: O=c1c(O)c(-c2ccc(O)cc2)oc2cc(O)cc(O)c12; test: cells, lysate or membranes; assay type: biochemical, Oryza sativa; details: 1 mM NADPH, 100 mM Tris pH 7.5, 30 °C
[3] = substrate: O=C1CC(c2ccc(O)cc2)Oc2cc(O)cc(O)c21; test: cells, lysate or membranes; details: 1 mM NADPH, 100 mM Tris pH 7.5, 30 °C, racemic substrate
[4] = substrate: O=C1c2c(O)cc(O)cc2OC(c2ccc(O)cc2)C1O; test: cells, lysate or membranes; assay type: biochemical, Oryza sativa; details: 1 mM NADPH, 100 mM Tris pH 7.5, 30 °C, racemic substrate

Molecule	substrate feeding of induced yeast, HPLC of 3'-hydroxylated product (CYP75B4-JJJ)	substrate feeding of induced yeast, HPLC of 3'-hydroxylated product (CYP75B4-HN)	Km [1] [µM]	Vmax [1] [µM/min/mg]	Km [2] [µM]	Vmax [2] [µM/min/mg]	Km [3] [µM]	Vmax [3] [µM/min/mg]	Km [4] [µM]	Vmax [4] [µM/min/mg]
O=c1c(O)c(-c2ccc(O)cc2)oc2cc(O)cc(O)c12 [KAM, kaempferol]	CYP75B4-IM, CYP75B4-HN, and CYP75B4-JJJ metabolized naringenin, apigenin, and kaempferol	CYP75B4-IM, CYP75B4-HN, and CYP75B4-JJJ metabolized naringenin, apigenin, and kaempferol								
O=c1cc(-c2ccc(O)cc2)oc2cc(O)cc(O)c12 [API, apigenin]	CYP75B4-IM, CYP75B4-HN, and CYP75B4-JJJ metabolized naringenin, apigenin, and kaempferol	CYP75B4-IM, CYP75B4-HN, and CYP75B4-JJJ metabolized naringenin, apigenin, and kaempferol								
B1			0.240 ± 0.042	0.008	2.948 ± 0.330	0.007				
B2					0.110 ± 0.008	0.24	0.286 ± 0.015	0.214	2.494 ± 0.350	0.43
B3							0.108 ± 0.009	0.193	1.034 ± 0.107	0.281
